Experiment: ion mobility collision cross-section
Assay type: physicochemical
Conditions: native IM-MS, N2, calibrated with β-lactoglobulin and avidin
Description: To isolate a stable HspB1-FLNCd18–21 complex and localize the binding within HspB1, we performed native ion mobility MS (IM-MS) experiments. […] Next, we mixed FLNCd18–21 with either HspB1_84–171 or peptides mimicking the PPR, because this region is phosphorylated in the MLP KO mice (Fig. 1C) and generally upon biomechanical stress ([26]) and becomes exposed thereafter. This strategy of using segments of HspB1 meant that we could avoid the problems of insolubilization of the full-length protein upon interaction with FLNC d18–21, as well as generally mitigate the confounding effects associated with the chaperone’s intrinsic polydispersity.
Because HspB1 can form disulfide-linked dimers, experiments involving the ACD were performed in the presence of 10-fold molar excess DTT. Gold-plated capillaries were prepared in-house. Native MS and IM-MS data were recorded on a Synapt G1 mass spectrometer (Waters) modified for the transmission of intact noncovalent protein complexes. HspB1_77–171 variants were analyzed at a concentration of 10 μM in 200 mM ammonium acetate (pH 6.9). […]
CCSs (Ω) of models from the PDB (trimmed in PyMOL as described in the Supplementary Materials) were calculated by the projection approximation method using IMPACT ([60]), accounting for N2 as the collision gas. […]

B1: FLNCd18–21: Human FLNC domains 18-21 (protein)
chain: TAKITGDDSMRTSQLNVGTSTDVSLKITESDLSQLTASIRAPSGNEEPCLLKRLPNRHIGISFTPKEVGEHVVSVRKSGKHVTNSPFKILVGPSEIGDASKVRVWGKGLSEGHTFQVAEFIVDTRNAGYGGLGLSIEGPSKVDINCEDMEDGTCKVTYCPTEPGTYIINIKFADKHVPGSPFTVKVTGEGRMKESITRRRQAPSIATIGSTCDLNLKIPGNWFQMVSAQERLTRTFTRSSHTYTRTERTEISKTRGGETKREVRVEESTQVGGDPFPAVFGDFLGRERLGSFGSITRQQEGEASSQDMTAQVTSPSGKVEAAEIVEGEDSAYSVRFVPQEMGPHTVAVKYRGQHVPGSPFQFTVGPLGEGGAHKVRAGGTGLERGVAGVPAEFSIWTREAGAGGLSIAVEGPSKAEIAFEDRKDGSCGVSYVVQEPGDYEVSIKFNDEHIPDSPFVVPVASLSDDA
modifications: left off: His6, C-terminal, state not stated | EEF, C-terminal, kept
  collision cross section (CCS): 37.2 ± 0.8 nm^2

From article PMC6530996, “HspB1 phosphorylation regulates its intramolecular dynamics and mechanosensitive molecular chaperone interaction with filamin C” (Science Advances, 2019)
